# Source: IntAct's records for PubMed 29039417
# B1: BBSome complex member BBS1 (Homo sapiens), Q8NFJ9 (parent)
# chain: MAAASSSDSDACGAESNEANSKWLDAHYDPMANIHTFSACLALADLHGDGEYKLVVGDLGPGGQQPRLKVLKGPLVMTESPLPALPAAAATFLMEQHEPRTPALALASGPCVYVYKNLRPYFKFSLPQLPPNPLEQDLWNQAKEDRIDPLTLKEMLESIRETAEEPLSIQSLRFLQLELSEMEAFVNQHKSNSIKRQTVITTMTTLKKNLADEDAVSCLVLGTENKELLVLDPEAFTILAKMSLPSVPVFLEVSGQFDVEFRLAAACRNGNIYILRRDSKHPKYCIELSAQPVGLIRVHKVLVVGSTQDSLHGFTHKGKKLWTVQMPAAILTMNLLEQHSRGLQAVMAGLANGEVRIYRDKALLNVIHTPDAVTSLCFGRYGREDNTLIMTTRGGGLIIKILKRTAVFVEGGSEVGPPPAQAMKLNVPRKTRLYVDQTLREREAGTAMHRAFQTDLYLLRLRAARAYLQALESSLSPLSTTAREPLKLHAVVQGLGPTFKLTLHLQNTSTTRPVLGLLVCFLYNEALYSLPRAFFKVPLLVPGLNYPLETFVESLSNKGISDIIKVLVLREGQSAPLLSAHVNMPGSEGLAAA
# partner: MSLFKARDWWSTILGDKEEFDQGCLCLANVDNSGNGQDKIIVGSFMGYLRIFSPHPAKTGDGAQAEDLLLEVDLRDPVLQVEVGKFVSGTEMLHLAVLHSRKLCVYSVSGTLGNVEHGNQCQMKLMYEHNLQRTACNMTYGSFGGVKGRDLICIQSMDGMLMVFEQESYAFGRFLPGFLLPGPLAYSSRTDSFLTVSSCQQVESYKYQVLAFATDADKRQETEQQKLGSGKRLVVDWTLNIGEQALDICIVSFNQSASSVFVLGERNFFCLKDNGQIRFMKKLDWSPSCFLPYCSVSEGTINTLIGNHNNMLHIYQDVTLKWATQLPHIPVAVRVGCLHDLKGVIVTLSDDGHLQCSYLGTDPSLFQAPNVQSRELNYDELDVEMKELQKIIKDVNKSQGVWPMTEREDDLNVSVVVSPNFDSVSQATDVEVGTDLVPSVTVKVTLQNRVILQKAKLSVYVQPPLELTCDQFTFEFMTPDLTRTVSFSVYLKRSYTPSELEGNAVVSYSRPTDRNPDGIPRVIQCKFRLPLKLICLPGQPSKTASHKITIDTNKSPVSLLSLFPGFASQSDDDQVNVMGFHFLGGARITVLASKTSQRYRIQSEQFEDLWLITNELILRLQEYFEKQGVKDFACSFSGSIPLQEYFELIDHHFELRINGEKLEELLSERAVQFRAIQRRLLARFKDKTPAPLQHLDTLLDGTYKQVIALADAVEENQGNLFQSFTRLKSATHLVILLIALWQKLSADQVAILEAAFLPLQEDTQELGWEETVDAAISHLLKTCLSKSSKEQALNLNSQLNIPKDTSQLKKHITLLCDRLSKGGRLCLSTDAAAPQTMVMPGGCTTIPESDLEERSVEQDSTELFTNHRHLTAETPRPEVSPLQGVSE
# Variants of: B1
# Conditions: with pthb1_human BBS9, Q3SYG4
row,Variant,effect of a mutation on the interaction
1,MAAASSSDSDACGAESNEANSKWLDAHYDPMANIHTFSACLALADLHGDGEYKLVVGDLGPGGQQPRLKVLKGPLVMTESPLPALPAAAATFLMEQHEPRTPALALASGPCVYVYKNLRPYFKFSLPQLPPNPLEQDLWNQAKEDRIDPLTLKEMLESIRETAEEPLSIQSLRFLQLELSEMEAFVNQHKSNSIKRQTVITTMTTLKKNLADEDAVSCLVLGTENKELLVLDPEAFTILAKMSLPSVPVFLEVSGQFDVEFRLAAACRNGNIYILRRDSKHPKYCIELSAQPVGLIRVHKVLVVGSTQDSLHGFTHKGKKLWTVQMPAAILTMNLLEQHSRGLQAVMAGLANGEVRIYRDKALLNVIHTPDAVTSLCFGRYGREDNTLIMTTRGGGLIIKILKRTAVFVEGGSEVGPPPAQAMKLNVPRKTRLYVDQTLREREAGTAMHRAFQTDLYLLRLRAARAYLQALESSLSPLSTTAREPLKLHAVVQGLGPTFKLTLHLQNTSTTRPVLGLLVCFLYNEALYSLPRAFFKVPLLVPGLNYPLETFVESLSNKGISDIAKVLVLREGQSAPLLSAHVNMPGSEGLAAA [I564A],disrupting interaction strength
2,MAAASSSDSDACGAESNEANSKWLDAHYDPMANIHTFSACLALADLHGDGEYKLVVGDLGPGGQQPRLKVLKGPLVMTESPLPALPAAAATFLMEQHEPRTPALALASGPCVYVYKNLRPYFKFSLPQLPPNPLEQDLWNQAKEDRIDPLTLKEMLESIRETAEEPLSIQSLRFLQLELSEMEAFVNQHKSNSIKRQTVITTMTTLKKNLADEDAVSCLVLGTENKELLVLDPEAFTILAKMSLPSVPVFLEVSGQFDVEFRLAAACRNGNIYILRRDSKHPKYCIELSAQPVGLIRVHKVLVVGSTQDSLHGFTHKGKKLWTVQMPAAILTMNLLEQHSRGLQAVMAGLANGEVRIYRDKALLNVIHTPDAVTSLCFGRYGREDNTLIMTTRGGGLIIKILKRTAVFVEGGSEVGPPPAQAMKLNVPRKTRLYVDQTLREREAGTAMHRAFQTDLYLLRLRAARAYLQALESSLSPLSTTAREPLKLHAVVQGLGPTFKLTLHLQNTSTTRPVLGLLVCFLYNEALYSLPRAFFKVPLLVPGLNYPLETFVESLSNKGISDIEKVLVLREGQSAPLLSAHVNMPGSEGLAAA [I564E],disrupting interaction strength

# Next, values leading:
row,effect of a mutation on the interaction,Variant
1,disrupting interaction strength,MAAASSSDSDACGAESNEANSKWLDAHYDPMANIHTFSACLALADLHGDGEYKLVVGDLGPGGQQPRLKVLKGPLVMTESPLPALPAAAATFLMEQHEPRTPALALASGPCVYVYKNLRPYFKFSLPQLPPNPLEQDLWNQAKEDRIDPLTLKEMLESIRETAEEPLSIQSLRFLQLELSEMEAFVNQHKSNSIKRQTVITTMTTLKKNLADEDAVSCLVLGTENKELLVLDPEAFTILAKMSLPSVPVFLEVSGQFDVEFRLAAACRNGNIYILRRDSKHPKYCIELSAQPVGLIRVHKVLVVGSTQDSLHGFTHKGKKLWTVQMPAAILTMNLLEQHSRGLQAVMAGLANGEVRIYRDKALLNVIHTPDAVTSLCFGRYGREDNTLIMTTRGGGLIIKILKRTAVFVEGGSEVGPPPAQAMKLNVPRKTRLYVDQTLREREAGTAMHRAFQTDLYLLRLRAARAYLQALESSLSPLSTTAREPLKLHAVVQGLGPTFKLTLHLQNTSTTRPVLGLLVCFLYNEALYSLPRAFFKVPLLVPGLNYPLETFVESLSNKGISDIKKVLVLREGQSAPLLSAHVNMPGSEGLAAA [I564K]
2,with no effect,MAAASSSDSDACGAESNEANSKWLDAHYDPMANIHTFSACLALADLHGDGEYKLVVGDLGPGGQQPRLKVLKGPLVMTESPLPALPAAAATFLMEQHEPRTPALALASGPCVYVYKNLRPYFKFSLPQLPPNPLEQDLWNQAKEDRIDPLTLKEMLESIRETAEEPLSIQSLRFLQLELSEMEAFVNQHKSNSIKRQTVITTMTTLKKNLADEDAVSCLVLGTENKELLVLDPEAFTILAKMSLPSVPVFLEVSGQFDVEFRLAAACRNGNIYILRRDSKHPKYCIELSAQPVGLIRVHKVLVVGSTQDSLHGFTHKGKKLWTVQMPAAILTMNLLEQHSRGLQAVMAGLANGEVRIYRDKALLNVIHTPDAVTSLCFGRYGREDNTLIMTTRGGGLIIKILKRTAVFVEGGSEVGPPPAQAMKLNVPRKTRLYVDQTLREREAGTAMHRAFQTDLYLLRLRAARAYLQALESSLSPLSTTAREPLKLHAVVQGLGPTFKLTLHLQNTSTTRPVLGLLVCFLYNEALYSLPRAFFKVPLLVPGLNYPLETFVESLSNKGISDIIKALVLREGQSAPLLSAHVNMPGSEGLAAA [V566A]

# Variants of: B1
# Conditions: with pthb1_human BBS9, Q3SYG4
# Remark: another data set of the same source
row,Variant,effect of a mutation on the interaction
1,MAAASSSDSDACGAESNEANSKWLDAHYDPMANIHTFSACLALADLHGDGEYKLVVGDLGPGGQQPRLKVLKGPLVMTESPLPALPAAAATFLMEQHEPRTPALALASGPCVYVYKNLRPYFKFSLPQLPPNPLEQDLWNQAKEDRIDPLTLKEMLESIRETAEEPLSIQSLRFLQLELSEMEAFVNQHKSNSIKRQTVITTMTTLKKNLADEDAVSCLVLGTENKELLVLDPEAFTILAKMSLPSVPVFLEVSGQFDVEFRLAAACRNGNIYILRRDSKHPKYCIELSAQPVGLIRVHKVLVVGSTQDSLHGFTHKGKKLWTVQMPAAILTMNLLEQHSRGLQAVMAGLANGEVRIYRDKALLNVIHTPDAVTSLCFGRYGREDNTLIMTTRGGGLIIKILKRTAVFVEGGSEVGPPPAQAMKLNVPRKTRLYVDQTLREREAGTAMHRAFQTDLYLLRLRAARAYLQALESSLSPLSTTAREPLKLHAVVQGLGPTFKLTLHLQNTSTTRPVLGLLVCFLYNEALYSLPRAFFKVPLLVPGLNYPLETFVESLSNKGISDIAKVLVLREGQSAPLLSAHVNMPGSEGLAAA [I564A],with no effect
